Results: patent publication US20130230533A1 (Regeneron, published 2013)
Substitutions are numbered along the chain they refer to. Names and notes keep the numbering of the source.

B1: H4H1772P (antibody, human IgG4, V domains shown)
VH: EVQLVESGGGLVQPGGSLRLSCAASGFTFSSYWMSWVRQAPGKGLEWVANIMRDGSEKYYVDSVKGRFTISRDNAKNSLYLQMNSLRGEDTAVYYCARERGFYTNYGNWFDPWGQGTLVTVSS
VL: DIVMTQSPLSLTVTPGESASISCRSSQSLLHSYGYNSLDWYLQKPGQSPQFLIYLVSNRASGVPDRFSGSGSGTDFTLKISRVEAEDVGVYYCMQVLQTPYTFGQGTKLEIK
notes: Human IgG4 Fc (H4H)
B2: H4H1713N (antibody, V domains shown)
VH: QVQLVQSGAEVKKPGASVKVSCKASGHTFTNYYIHWVRQAPGQGLEWMGITNPNDGNTRYAQKFQGRISMTWDTSTSTVFMELSSLKSEDTAVYYCAGLRYWFFDLWGRGTPVTVSS
VL: DIQMTQSPSSVSASVGDRVTITCRASQDISSWLAWYQQKPGKAPNLLIFAASSLQSGVPSRFSGSGSGTDFTLTISSLQPEDFGTYYCQQTDNFPRTFGQGTKVEIN
notes: Human IgG4 Fc (H4H)
B3: H4H1774P (antibody, human IgG4, V domains shown)
VH: QVQLVESGGGVVQPGRSLRLSCAASGFTFSNYGMHWVRQAPGKGLEWVAVIWYDESSKYYTDSVKGRFTISRDNSQNTLYLQMTSLRAEDTAVYYCARDRWTYSHYFEYWGQGTLVTVSS
VL: B2 VL with D28G, L33V, N45K, F49Y, G84A, T91A, D92N, N93S, N107K
notes: Human IgG4 Fc (H4H)
B4: H4H1770P (antibody, human IgG4, V domains shown)
VH: QVQLVQSGAEVKKPGAAVKVSCKASGYTFTAYGISWVRQAPGQGLEWMGWISAYDGDTNNAQKFQGRVTMTTDTSSSTAYMELRSLGSDDTAVYYCARDRYSSSSGYFDYWGQGTLVTVSS
VL: DIQMTQSPSSVSASVGDRVTITCRASQDISSWLAWSQQKPGKAPKALIYAASSLQSGVPSRFSGSGSGTDFTLTISSLQPEDFATYYCQQANSFPYTFGQGTKLEIK
notes: Human IgG4 Fc (H4H)
B5: H4H1763N (antibody, V domains shown)
VH: QIQLVQSGAEMKRPGTSVKVSCKASGYTFTSYGINWVRQAPGQGLEWMGWISAYNGDTNYAQKLQGRVTMTTDTSTTTAYMEVRSLRSDDTAVYYCARFLTGTKDYYYGMDVWGQGTTVTVSS
VL: DIQMTQSPSSLSASVGDRVTITCQASQDISNFLNWYQQKPGKAPDLLINDASILETGVPSRFSGSGSGTDFTLTINNLQPEDIATYYCQQYDNLPLTFGGGTKVEIK
notes: Human IgG4 Fc (H4H)
B6: H4H1771P (antibody, human IgG4, V domains shown)
VH: QVQLVQSGTEVKKPGASVKVSCKVSGYTLIDLSIHWVRQAPGEGLEWMGGFDPEESETIYAQKFQGRVTMTEDTSTDTAYMELSSLRSEDTAVYYCVTEPIFGILIHESWGQGTLVTVSS
VL: DIVMTQTPLSSPVTLGQPASISCRSSHSPVHSNGHTYLSWLQQRPGQPPRILIYKISRRFSGVPDRFSGSGAGTDFTLKISRVETEDVGIYYCMQASQFPWTFGQGTKVEIK
notes: Human IgG4 Fc (H4H)
B7: H4H1764N (antibody, V domains shown)
VH: QVQLVESGGGVVQPGRSLRLSCAASGFTFSDYGMHWVRQAPGKGLEWVAVIWNDGSNKNYADSVKGRFSISSDSSKNTLYLHMNSLRAEDTAVYYCARSLYSTSPWYFDLWGRGTLVTVSS
VL: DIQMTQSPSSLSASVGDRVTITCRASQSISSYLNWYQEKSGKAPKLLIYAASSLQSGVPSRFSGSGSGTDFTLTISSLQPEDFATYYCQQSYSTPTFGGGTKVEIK
notes: Human IgG4 Fc (H4H)

Tests used:
Dimeric monkey CD48-mFc [1] = target: T1, Dimeric monkey CD48-mFc (monkey); assay: SPR (Biacore), antibody captured by anti-Fc, CD48 in solution, 25 C
T1 construct: Soluble monkey CD48 with a C-terminal Fc fusion [mFc]; the whole entry is the construct
T1 chain: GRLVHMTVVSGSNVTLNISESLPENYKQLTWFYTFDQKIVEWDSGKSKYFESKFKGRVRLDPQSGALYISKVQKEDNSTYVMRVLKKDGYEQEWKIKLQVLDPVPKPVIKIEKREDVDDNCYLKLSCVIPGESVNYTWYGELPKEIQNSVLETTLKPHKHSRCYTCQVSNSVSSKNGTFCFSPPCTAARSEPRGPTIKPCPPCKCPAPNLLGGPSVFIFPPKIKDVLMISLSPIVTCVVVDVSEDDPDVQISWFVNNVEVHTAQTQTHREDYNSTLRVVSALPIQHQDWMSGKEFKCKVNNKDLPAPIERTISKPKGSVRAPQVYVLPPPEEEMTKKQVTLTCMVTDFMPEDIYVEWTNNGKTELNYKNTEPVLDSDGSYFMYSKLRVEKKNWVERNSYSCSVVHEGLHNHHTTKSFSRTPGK
Protocol: (§1) Measurements were conducted on a T100-2 BIACORE™ instrument (Biacore Life Sciences division of GE Healthcare, Piscataway, N.J.). Antibodies (either with mouse Fc [designated “H2M” or “H3M”] or human IgG4 Fc [designated “H4H”]) were captured through an anti-Fc chip surface, and CD48 was flowed over the surface either in a monomeric (soluble CD48 expressed with a myc-myc-hexa-histidine C-terminal tag [mmH]) or dimeric (soluble CD48 expressed with a C-terminal Fc fusion [mFc]) format.
(§2) The soluble CD48 was applied to the flow cell in separate injections at different concentrations, and kinetic association (kₐ) and dissociation (kd) rate constants were determined by fits to the kinetic binding data using Biacore software. Binding dissociation equilibrium constants and dissociation half-times were calculated from the kinetic rate constants as: KD=kd/kₐ; t_{1/2}=(ln 2/kd) (units: ka=M⁻¹*s⁻¹; kd=s⁻¹; KD=M; T½=min) (Tables 3-6).

[2] = target: T2, Monomeric monkey CD48-mmH (monkey); assay: as above
T2 construct: Soluble monkey CD48 with a myc-myc-hexa-histidine C-terminal tag; the whole entry is the construct; also called mfCD48-mmH
T2 chain: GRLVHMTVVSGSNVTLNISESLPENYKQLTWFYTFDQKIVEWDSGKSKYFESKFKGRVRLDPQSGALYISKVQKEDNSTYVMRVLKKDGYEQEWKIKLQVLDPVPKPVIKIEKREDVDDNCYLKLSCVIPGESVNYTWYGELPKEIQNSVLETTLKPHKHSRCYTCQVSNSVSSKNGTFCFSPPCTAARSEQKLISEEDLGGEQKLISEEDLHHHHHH
Protocol: as §1, §2

Dimeric human CD48-mFc = target: T3, Dimeric human CD48-mFc (human); assay: SPR (Biacore), antibody captured by anti-Fc, CD48 in solution, 37 C
T3 construct: the whole entry is the construct; also called hCD48-mFc
T3 chain: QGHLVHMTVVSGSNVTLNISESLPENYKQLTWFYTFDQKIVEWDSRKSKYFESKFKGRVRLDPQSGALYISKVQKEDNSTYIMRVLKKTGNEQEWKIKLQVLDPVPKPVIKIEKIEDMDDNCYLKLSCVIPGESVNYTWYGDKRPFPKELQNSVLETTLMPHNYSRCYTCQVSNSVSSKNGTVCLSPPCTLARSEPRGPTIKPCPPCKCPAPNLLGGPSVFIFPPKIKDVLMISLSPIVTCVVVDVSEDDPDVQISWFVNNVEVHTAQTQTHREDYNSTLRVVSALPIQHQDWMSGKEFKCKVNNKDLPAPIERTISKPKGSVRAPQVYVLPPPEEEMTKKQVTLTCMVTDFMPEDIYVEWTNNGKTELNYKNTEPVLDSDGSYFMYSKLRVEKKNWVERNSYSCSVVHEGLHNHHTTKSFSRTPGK
Protocol: as §1, §2

Dimeric monkey CD48-mFc [3] = target: T1, Dimeric monkey CD48-mFc; assay: as above
Protocol: as §1, §2

[4] = target: T2, Monomeric monkey CD48-mmH; assay: as above
Protocol: as §1, §2

Monomeric human CD48-mmH = target: T4, Monomeric human CD48-mmH (human); assay: as above
T4 chain: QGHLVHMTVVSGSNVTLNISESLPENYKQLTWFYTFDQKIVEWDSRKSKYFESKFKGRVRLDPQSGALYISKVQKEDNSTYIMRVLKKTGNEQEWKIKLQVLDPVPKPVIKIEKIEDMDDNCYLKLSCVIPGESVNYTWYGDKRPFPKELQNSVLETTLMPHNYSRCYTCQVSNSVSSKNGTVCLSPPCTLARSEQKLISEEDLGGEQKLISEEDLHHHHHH
Protocol: as §1, §2

Row | Binder | Kd (Dimeric monkey CD48-mFc [1]) [nM] | T½ (Dimeric monkey CD48-mFc [1]) [h] | koff (Dimeric monkey CD48-mFc [1]) [s⁻¹] | kon (Dimeric monkey CD48-mFc [1]) [M⁻¹ s⁻¹] | Kd [2] [nM] | T½ [2] [h] | koff [2] [s⁻¹] | kon [2] [M⁻¹ s⁻¹] | Kd (Dimeric human CD48-mFc) [nM] | T½ (Dimeric human CD48-mFc) [h] | koff (Dimeric human CD48-mFc) [s⁻¹] | kon (Dimeric human CD48-mFc) [M⁻¹ s⁻¹] | Kd (Dimeric monkey CD48-mFc [3]) [nM] | T½ (Dimeric monkey CD48-mFc [3]) [h] | koff (Dimeric monkey CD48-mFc [3]) [s⁻¹] | kon (Dimeric monkey CD48-mFc [3]) [M⁻¹ s⁻¹] | Kd [4] [nM] | T½ [4] [h] | koff [4] [s⁻¹] | kon [4] [M⁻¹ s⁻¹] | also measured
1 | B1 | 0.0968 | 3.83 | 5.02e-05 | 519000 | 1.1 | 0.383 | 0.000508 | 461000 | 0.065 | 3.22 | 5.98e-05 | 920000 | 0.0947 | 2.63 | 7.31e-05 | 772000 | 4.53 | 0.133 | 0.00145 | 320000 | Kd (Monomeric human CD48-mmH): 5.94 nM; T½ (Monomeric human CD48-mmH): 0.183 h; koff (Monomeric human CD48-mmH): 0.00102 s⁻¹; kon (Monomeric human CD48-mmH): 172000 M⁻¹ s⁻¹
2 | B2 | 0.281 | 0.8 | 0.000242 | 861000 | 0.843 | 0.733 | 0.000265 | 315000 | 0.036 | 4.25 | 4.53e-05 | 1.26e+06 | 0.3 | 0.367 | 0.000516 | 1.72e+06 | 1.19 | 0.5 | 0.000382 | 320000 | Kd (Monomeric human CD48-mmH): 2.23 nM; T½ (Monomeric human CD48-mmH): 0.3 h; koff (Monomeric human CD48-mmH): 0.000636 s⁻¹; kon (Monomeric human CD48-mmH): 286000 M⁻¹ s⁻¹
3 | B3 | 0.0525 | 9.3 | 2.07e-05 | 395000 | 0.289 | 2.52 | 7.63e-05 | 263000 | 0.0439 | 12.1 | 1.6e-05 | 363000 | 0.107 | 3.57 | 5.4e-05 | 508000 | 1.36 | 0.717 | 0.000267 | 197000 | Kd (Monomeric human CD48-mmH): 0.824 nM; T½ (Monomeric human CD48-mmH): 1.8 h; koff (Monomeric human CD48-mmH): 0.000107 s⁻¹; kon (Monomeric human CD48-mmH): 130000 M⁻¹ s⁻¹
4 | B4 | 0.131 | 1.72 | 0.000113 | 858000 | 0.298 | 0.9 | 0.000215 | 720000 | 0.0138 | 6.25 | 3.08e-05 | 2.23e+06 | 0.0911 | 1.38 | 0.000139 | 1.53e+06 | 0.44 | 1.1 | 0.000174 | 396000 | Kd (Monomeric human CD48-mmH): 0.662 nM; T½ (Monomeric human CD48-mmH): 0.367 h; koff (Monomeric human CD48-mmH): 0.000533 s⁻¹; kon (Monomeric human CD48-mmH): 804000 M⁻¹ s⁻¹
5 | B5 | 0.0519 | 2.8 | 6.88e-05 | 1.33e+06 | 2.34 | 0.15 | 0.00124 | 527000 | 0.0267 | 3.07 | 6.28e-05 | 2.35e+06 | 0.047 | 1.68 | 0.000114 | 2.42e+06 | 2.49 | 0.15 | 0.00133 | 534000 | Kd (Monomeric human CD48-mmH): 12.7 nM; T½ (Monomeric human CD48-mmH): 0.0167 h; koff (Monomeric human CD48-mmH): 0.0169 s⁻¹; kon (Monomeric human CD48-mmH): 1.33e+06 M⁻¹ s⁻¹
6 | B6 | 0.0587 | 3.5 | 5.51e-05 | 939000 | 0.453 | 0.4 | 0.000477 | 1.05e+06 | 0.0166 | 4 | 4.81e-05 | 2.89e+06 | 0.0621 | 1.88 | 0.000102 | 1.64e+06 | 1.34 | 0.217 | 0.000877 | 657000 | Kd (Monomeric human CD48-mmH): 0.488 nM; T½ (Monomeric human CD48-mmH): 0.35 h; koff (Monomeric human CD48-mmH): 0.000547 s⁻¹; kon (Monomeric human CD48-mmH): 1.12e+06 M⁻¹ s⁻¹
7 | B7 | 0.525 | 1.47 | 0.000132 | 251000 | 2.34 | 0.933 | 0.000206 | 87700 | 0.33 | 1.93 | 9.94e-05 | 301000 | 7.4 | 0.133 | 0.00142 | 192000 | 2.91 | 0.317 | 0.00062 | 213000 | Kd (Monomeric human CD48-mmH): 109 nM; T½ (Monomeric human CD48-mmH): 0.0167 h; koff (Monomeric human CD48-mmH): 0.0114 s⁻¹; kon (Monomeric human CD48-mmH): 105000 M⁻¹ s⁻¹
